Results published in patent US20260250651, “CAS12 PROTEINS AND USES THEREOF” (GUANGZHOU REFORGENE MEDICINE CO., LTD., published 2026).

Experiments:
Cas12i-135 = molecular target: T1, Cas12i-135 (N295R,N260R,G705R,L475R); experiment: cell_activity; 293T indels
T1 chain: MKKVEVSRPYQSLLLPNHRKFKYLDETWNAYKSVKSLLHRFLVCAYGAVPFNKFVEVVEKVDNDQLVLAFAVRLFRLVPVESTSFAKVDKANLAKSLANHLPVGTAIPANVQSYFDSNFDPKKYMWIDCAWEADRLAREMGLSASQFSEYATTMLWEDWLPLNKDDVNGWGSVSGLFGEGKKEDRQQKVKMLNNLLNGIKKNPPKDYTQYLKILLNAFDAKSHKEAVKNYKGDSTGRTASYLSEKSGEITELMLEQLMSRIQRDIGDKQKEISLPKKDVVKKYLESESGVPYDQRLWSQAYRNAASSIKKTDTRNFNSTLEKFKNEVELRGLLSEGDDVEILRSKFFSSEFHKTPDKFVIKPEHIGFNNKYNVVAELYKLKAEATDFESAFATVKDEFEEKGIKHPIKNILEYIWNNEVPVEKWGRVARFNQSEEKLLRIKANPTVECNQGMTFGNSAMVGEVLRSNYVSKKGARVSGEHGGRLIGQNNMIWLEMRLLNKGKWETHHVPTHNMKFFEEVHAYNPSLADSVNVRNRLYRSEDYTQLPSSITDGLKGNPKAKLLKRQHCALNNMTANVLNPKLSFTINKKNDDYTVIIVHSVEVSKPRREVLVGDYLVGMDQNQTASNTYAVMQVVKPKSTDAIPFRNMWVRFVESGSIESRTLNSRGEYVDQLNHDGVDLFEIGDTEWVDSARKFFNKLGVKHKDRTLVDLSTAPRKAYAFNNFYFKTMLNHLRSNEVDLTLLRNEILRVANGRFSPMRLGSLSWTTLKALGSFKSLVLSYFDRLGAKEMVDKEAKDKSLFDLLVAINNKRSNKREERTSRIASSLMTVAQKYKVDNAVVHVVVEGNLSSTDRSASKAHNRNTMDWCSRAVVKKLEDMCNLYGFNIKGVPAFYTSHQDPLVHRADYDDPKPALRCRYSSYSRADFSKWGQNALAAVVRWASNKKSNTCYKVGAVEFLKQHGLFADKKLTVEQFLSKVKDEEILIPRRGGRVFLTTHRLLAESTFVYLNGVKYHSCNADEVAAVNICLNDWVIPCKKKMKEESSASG
Protocol: (§1) Plating: The 293T cell line was plated when the confluence reached 70-80%, and the number of cells seeded in a 24-well plate was 5*10\hat{ }5 cells/well.
(§2) Transfection: After 12-14 hours of plating, transfection was performed. 100 μl of Opti-MEM, 1.5 μl of PEI (Yisheng Bio, Polyethylenimine Linear (PEI) MW25000), 250 ng of the mutant clone plasmid from Example 2, and 250 ng of gRNA plasmid for targeting endogenous genes were added to each well of a 24-well plate. The mixture was incubated at room temperature for 20 minutes and then added to 293T cells for transfection. After transfection overnight, the medium was replaced with fresh medium and cultured for the next period.
(§3) DNA extraction, PCR amplification, and Sanger sequencing: After culturing for 72 hours, cells were washed with PBS, and then 100 μl of cell lysis buffer (Viagen, DirectPCR® Lysis Reagent (Cell)) was added for lysis to obtain a lysate containing genomic DNA. The genomic DNA was amplified in the region near the target sequence, and the PCR product was sent to a sequencing company for Sanger sequencing.

Cas12i-30 [1] = molecular target: T2, Cas12i-30 (N295R,N260R); experiment: cell_activity; 293T indels; editing >10%
T2 chain: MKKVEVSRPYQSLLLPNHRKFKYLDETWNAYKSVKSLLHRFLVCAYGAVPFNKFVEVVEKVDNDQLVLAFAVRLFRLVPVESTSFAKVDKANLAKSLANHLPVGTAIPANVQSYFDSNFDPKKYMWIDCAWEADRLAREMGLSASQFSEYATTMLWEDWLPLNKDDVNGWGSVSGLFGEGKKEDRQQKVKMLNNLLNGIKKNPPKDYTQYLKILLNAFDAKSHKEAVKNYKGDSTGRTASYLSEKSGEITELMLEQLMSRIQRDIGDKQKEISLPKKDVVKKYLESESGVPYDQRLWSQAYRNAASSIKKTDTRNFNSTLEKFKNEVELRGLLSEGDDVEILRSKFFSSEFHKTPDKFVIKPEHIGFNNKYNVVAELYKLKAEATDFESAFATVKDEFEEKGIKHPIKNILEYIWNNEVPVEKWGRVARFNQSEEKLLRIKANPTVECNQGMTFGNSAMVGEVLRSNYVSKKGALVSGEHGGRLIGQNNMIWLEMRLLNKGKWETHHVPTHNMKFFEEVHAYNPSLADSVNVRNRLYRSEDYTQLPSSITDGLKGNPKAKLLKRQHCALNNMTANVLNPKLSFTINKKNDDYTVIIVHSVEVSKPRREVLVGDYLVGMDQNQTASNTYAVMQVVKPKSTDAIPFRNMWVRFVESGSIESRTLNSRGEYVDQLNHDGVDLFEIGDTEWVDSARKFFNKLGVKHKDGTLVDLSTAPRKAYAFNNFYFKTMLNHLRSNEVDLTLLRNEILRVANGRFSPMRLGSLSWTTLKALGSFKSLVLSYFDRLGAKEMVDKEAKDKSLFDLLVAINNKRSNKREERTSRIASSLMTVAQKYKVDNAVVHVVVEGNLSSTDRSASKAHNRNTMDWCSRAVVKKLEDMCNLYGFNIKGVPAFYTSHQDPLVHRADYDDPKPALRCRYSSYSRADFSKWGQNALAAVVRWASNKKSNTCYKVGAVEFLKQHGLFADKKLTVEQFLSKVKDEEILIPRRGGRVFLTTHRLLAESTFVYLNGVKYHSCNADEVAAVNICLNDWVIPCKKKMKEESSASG
Protocol: as §1, §2, §3

Cas12i-30 [2] = molecular target: T2, Cas12i-30; experiment: cell_activity; 293T indels, reference; editing >10%
Protocol: as §1, §2, §3

B1: gRNA-TTR ; TTR target (ssRNA ; dsDNA)
RNA: AGAGAAUGUGUGCAUAGUCACACCAGUAAGAUUUGGUGUCUAU
DNA 1: CAGTAAGATTTGGTGTCTAT
DNA 2: ATAGACACCAAATCTTACTG
**Q.** For B1, which “relative indel editing efficiency” value (Cas12i-135) is on record?
**A.** 1.73 fold of Cas12i-69

**Q.** And the “relative indel editing efficiency” value (Cas12i-30 [1])?
**A.** 1.89 fold of wild type

B2: gRNA-HBB ; HBB target (ssRNA ; dsDNA)
RNA: AGAGAAUGUGUGCAUAGUCACACUAUGCAGAAAUAUUGCUAUUGCCU
DNA 1: TATGCAGAAATATTGCTATTGCCT
DNA 2: AGGCAATAGCAATATTTCTGCATA
**Q.** With B2 as the binder, how does the “relative indel editing efficiency” value (Cas12i-30 [2]) read?
**A.** 1 fold of Cas12i-30
